These binders were tested against biotinylated human DLL3 protein expressed as a human IgG1 fusion protein (human) (UniProt Q9NYJ7) (assay: Octet BLI; biotinylated huDLL3-IgG1 fusion on streptavidin tips; single 50 nM; conditioned medium).
Sequence of biotinylated human DLL3 protein expressed as a human IgG1 fusion protein (human) (Q9NYJ7 other isoform, or with tags, fused parts or gaps): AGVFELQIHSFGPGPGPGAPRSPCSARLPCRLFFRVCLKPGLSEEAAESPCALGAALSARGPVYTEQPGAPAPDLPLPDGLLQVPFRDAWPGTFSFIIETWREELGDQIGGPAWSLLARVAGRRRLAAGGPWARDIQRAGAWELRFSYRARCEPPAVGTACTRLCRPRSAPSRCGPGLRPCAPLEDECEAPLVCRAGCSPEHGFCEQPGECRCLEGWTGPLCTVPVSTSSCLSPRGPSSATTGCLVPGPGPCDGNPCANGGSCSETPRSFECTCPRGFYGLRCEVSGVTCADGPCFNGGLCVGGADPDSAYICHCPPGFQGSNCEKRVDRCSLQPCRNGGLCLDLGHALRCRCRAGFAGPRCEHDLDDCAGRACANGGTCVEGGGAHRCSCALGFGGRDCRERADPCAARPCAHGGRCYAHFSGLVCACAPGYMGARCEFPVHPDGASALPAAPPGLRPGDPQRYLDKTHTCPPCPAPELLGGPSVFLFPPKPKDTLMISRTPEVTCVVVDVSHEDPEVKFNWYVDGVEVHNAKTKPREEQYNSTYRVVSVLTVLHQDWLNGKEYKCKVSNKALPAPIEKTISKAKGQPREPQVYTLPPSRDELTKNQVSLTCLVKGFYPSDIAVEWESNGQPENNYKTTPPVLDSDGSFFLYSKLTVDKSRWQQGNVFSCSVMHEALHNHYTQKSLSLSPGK

Binder | Kd
anti-DLL3 trispecific protein 4E02 (protein, part only; not given: CD3 binder and albumin binder, part only) chain, part: EVQLVESGGGLVQPGGSLTLSCAASGSQVSFLSMAWYRQAPGKKRELVAGISADGSTVYIDSVKGRFTISRDNAKNSVYLQMNSLRAEDTAVYYCYAYRWSTRYTYWGQGTLVTVSSGGGGSGGGSGGGGSGGGSHHHHHH | 3.8 nM
anti-DLL3 trispecific protein 4D01 (protein, part only; not given: CD3 binder and albumin binder, part only) chain, part: EVQLVESGGGLVQPGGSLTLSCAASGSSVRFLSMAWYRQAPGKKRELVAGISADGSTVYIDSVKGRFTISRDNAKNSVYLQMNSLRAEDTAVYYCYAYRWTTRRTYWGQGTLVTVSSGGGGSGGGSGGGGSGGGSHHHHHH | 3.7 nM
anti-DLL3 trispecific protein 4B011 (protein, part only; not given: CD3 fragment and albumin sdAb, part only) chain, part: EVQLVESGGGLVQPGGSLTLSCAASGSSVTFLSMAWYRQAPGKKRELVAGISADGSTVYIDSVKGRFTISRDNAKNSVYLQMNSLRAEDTAVYYCYAYRWTTRGTYWGQGTLVTVSSGGGGSGGGSGGGGSGGGSHHHHHH | 3.9 nM
anti-DLL3 trispecific protein 4G01 (protein, part only; not given: CD3 binder and albumin binder, part only) chain, part: EVQLVESGGGLVQPGGSLTLSCAASGSSVRFLSMAWYRQAPGKKRELVAGISADGSTVYIDSVKGRFTISRDNAKNSVYLQMNSLRAEDTAVYYCYAYRWPTRYTYWGQGTLVTVSSGGGGSGGGSGGGGSGGGSHHHHHH | 3.6 nM
anti-DLL3 trispecific protein 1H012 (protein, part only; not given: anti-CD3 fragment and anti-albumin sdAb, part only) chain, part: EVQLVESGGGLVQPGGSLTLSCVASGSTSSINAMGWYRRAPGKQRELVAGISSDGSKVYVDSVKGRFTISRDNAKNSVYLQMNSLRAEDTAVYYCYYFRTVSGSSMPYWGQGTLVTVSSGGGGSGGGSGGGGSGGGSHHHHHH | 3.5 nM
anti-DLL3 trispecific protein 2E05 (protein, part only; not given: CD3 fragment and albumin sdAb, part only) chain, part: EVQLVESGGGLVQPGGSLTLSCVASGSPSSINAYGWYRRAPGKQRELVAGISSDGSKVYSDSVKGRFTISRDNAKNSVYLQMNSLRAEDTAVYYCYYFRTVSGSSMSYWGQGTLVTVSSGGGGSGGGSGGGGSGGGSHHHHHH | 3.9 nM
anti-DLL3 trispecific protein 1A011 (protein, part only; not given: anti-CD3 and anti-albumin domains, part only) chain, part: EVQLVESGGGLVQPGGSLTLSCVASGSTSSINAIGWYRRAPGKQRELVAGISSDGSKVYIDSVKGRFTISRDNAKNSVYLQMNSLRAEDTAVYYCYYFRTVSGSSYRYWGQGTLVTVSSGGGGSGGGSGGGGSGGGSHHHHHH | 3.7 nM
anti-DLL3 trispecific protein 1F02 (protein, part only; not given: CD3 binder and albumin binder, part only) chain, part: EVQLVESGGGLVQPGGSLTLSCVASGSTSSINAMAWYRRAPGKQRELAAGISSDQSKVYADSAKGRFTISRDNAKNSVYLQMNSLRAEDTAVYYCYYFRTVSGSSMSYWGQGTLVTVSSGGGGSGGGSGGGGSGGGSHHHHHH | 4 nM

The next binders have a lower Kd than those just listed; values first:

Kd | Binder
2.7 nM | anti-DLL3 trispecific protein 3H011 (protein, part only; not given: CD3 fragment and albumin sdAb, part only) chain, part: EVQLVESGGGLVQPGGSLTLSCAASGSSVKFLSMAWYRQAPGKKRELVAGISADGSTVYIDSVKGRFTISRDNAKNSVYLQMNSLRAEDTAVYYCYAYRWPTRYTYWGQGTLVTVSSGGGGSGGGSGGGGSGGGSHHHHHH
2.7 nM | anti-DLL3 trispecific protein 1E011 (protein, part only; not given: anti-CD3 and anti-albumin domains, part only) chain, part: EVQLVESGGGLVQPGGSLTLSCVASGNTSSINAMGWYRRAPGKQRELVAGISSDGSKVYYDSVKGRFTISRDNAKNSVYLQMNSLRAEDTAVYYCYYFRTVRGSSQRYWGQGTLVTVSSGGGGSGGGSGGGGSGGGSHHHHHH
2.5 nM | anti-DLL3 trispecific protein 1C010 (protein, part only; not given: CD3 binder and albumin binder, part only) chain, part: EVQLVESGGGLVQPGGSLTLSCVASGSTSRINAMGWYRRAPGKQRELVAGVSSDGSKVYADSVKGRFTISRDNAKNSVYLQMNSLRAEDTAVYYCYYFRTVSGSSMSYWGQGTLVTVSSGGGGSGGGSGGGGSGGGSHHHHHH
2.4 nM | anti-DLL3 trispecific protein 2E011 (protein, part only; not given: CD3 binder and albumin binder, part only) chain, part: EVQLVESGGGLVQPGGSLTLSCVASGSTSSINAIGWYRRAPGKQRELVAGISSDGSSVYADSVKGRFTISRDNAKNSVYLQMNSLRAEDTAVYYCYYFRRVSGSSMRYWGQGTLVTVSSGGGGSGGGSGGGGSGGGSHHHHHH
